How the values were obtained:
Test in all cases: cell-based or functional assay
[1] = biological target: T1, human complement C5 (human, UniProt P01031 19-1676)
[2] = biological target: T1, human complement C5; remark: listed apart in the source
[3] = biological target: T1, human complement C5; remark: listed apart in the source

T1 sequence (P01031 19-1676 limits assumed): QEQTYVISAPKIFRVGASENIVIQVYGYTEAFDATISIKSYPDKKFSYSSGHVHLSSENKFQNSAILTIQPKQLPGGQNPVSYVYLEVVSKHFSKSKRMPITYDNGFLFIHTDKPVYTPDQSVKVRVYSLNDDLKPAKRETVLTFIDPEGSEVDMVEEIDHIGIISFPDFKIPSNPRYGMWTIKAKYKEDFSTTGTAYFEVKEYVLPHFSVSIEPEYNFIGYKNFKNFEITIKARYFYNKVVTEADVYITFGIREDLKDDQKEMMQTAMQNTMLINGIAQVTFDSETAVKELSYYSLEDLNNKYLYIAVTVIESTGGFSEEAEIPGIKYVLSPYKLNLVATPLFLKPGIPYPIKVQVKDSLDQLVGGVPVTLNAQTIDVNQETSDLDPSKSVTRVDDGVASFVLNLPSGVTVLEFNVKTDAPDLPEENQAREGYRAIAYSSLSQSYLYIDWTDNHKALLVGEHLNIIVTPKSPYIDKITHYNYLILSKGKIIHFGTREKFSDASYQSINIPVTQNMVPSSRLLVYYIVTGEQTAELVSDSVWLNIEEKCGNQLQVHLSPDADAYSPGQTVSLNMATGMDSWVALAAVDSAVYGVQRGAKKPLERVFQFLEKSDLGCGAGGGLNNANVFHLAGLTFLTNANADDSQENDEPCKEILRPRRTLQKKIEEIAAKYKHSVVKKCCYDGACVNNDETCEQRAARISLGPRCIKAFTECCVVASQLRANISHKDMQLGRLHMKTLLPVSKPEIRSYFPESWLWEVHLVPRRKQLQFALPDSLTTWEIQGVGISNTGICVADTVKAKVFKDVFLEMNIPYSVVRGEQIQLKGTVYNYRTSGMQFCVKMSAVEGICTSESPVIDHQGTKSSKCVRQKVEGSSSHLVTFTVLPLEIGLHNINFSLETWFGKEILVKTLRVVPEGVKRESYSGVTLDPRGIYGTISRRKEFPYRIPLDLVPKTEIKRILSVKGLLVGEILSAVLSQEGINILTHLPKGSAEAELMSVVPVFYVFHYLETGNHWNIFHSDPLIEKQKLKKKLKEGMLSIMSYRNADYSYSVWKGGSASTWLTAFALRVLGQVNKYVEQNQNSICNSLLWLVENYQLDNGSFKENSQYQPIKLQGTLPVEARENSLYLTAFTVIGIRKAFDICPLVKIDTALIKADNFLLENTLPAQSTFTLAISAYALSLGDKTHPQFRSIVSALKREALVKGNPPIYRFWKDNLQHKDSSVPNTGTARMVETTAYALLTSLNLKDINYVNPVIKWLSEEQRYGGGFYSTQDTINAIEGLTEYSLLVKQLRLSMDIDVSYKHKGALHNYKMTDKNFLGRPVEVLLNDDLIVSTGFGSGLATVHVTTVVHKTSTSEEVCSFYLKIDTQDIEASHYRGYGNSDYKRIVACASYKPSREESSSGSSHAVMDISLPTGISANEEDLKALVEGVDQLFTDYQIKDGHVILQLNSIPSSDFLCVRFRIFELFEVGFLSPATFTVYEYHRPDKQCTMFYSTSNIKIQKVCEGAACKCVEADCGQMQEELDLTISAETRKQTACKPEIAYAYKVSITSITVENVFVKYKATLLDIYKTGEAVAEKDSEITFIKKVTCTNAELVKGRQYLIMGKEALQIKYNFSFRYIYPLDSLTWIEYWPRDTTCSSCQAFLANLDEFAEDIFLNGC

Row | Binder | % Max Inh. of Lysis (alternative pathway hemolysis, 25% NHS, 30 min) [1] | % Max Inh. of Lysis (alternative pathway hemolysis of rabbit RBC, 25% NHS, 30 min) [2] | mAb/C5 ratio that blocked hemolysis to close to zero (25% C5-deficient NHS, 145 nM C5 add-back) [3]
1 | H4H12177P2 (antibody, V domains shown) VH: EVQLVESGGGVVQRGESLRLSCSASDFIFKDYAMYWVRQIPGKGLEWISLISGDGDTTWYGDSVKGRFTISRDNNENSLFLQMNDLRTEDTAMYYCARDMGWNFFQLQYWGQGTLVTVSS VL: not shown | 42.6% | 76.2% | 
2 | H4H12175P (antibody, V domains shown) VH: EVQLVESGGGVVQPGGSLRLSCAASGFTFNDYAMHWVRQAPGKGLEWVSLISGDGGNTYYADSVKGRLTISRDNSKNSLYLQMNSLRTEDTALYYCAKDKGWNFGYFDLWGRGTLVTVSS VL: DIQMTQSPSSLSTSVGDRVTITCRASQNIDTYLNWYQQKPGKAPKLLIYDASSLQSGVPSRFSGSGSGTDFTLTITSLQPEDFATYYCQQNDNILHPLTFGGGTKVEIK |  | 77.8% | 
3 | H4H12171P (antibody, V domains shown) VH: EVQLVESGGGVVRPGGSLRLSCAASGFTFDEYGMTWVRQVPGKGLEWVSGITWNGGFTDYTDSVKGRFTSSRDNAKNSLYLQMNSLRAEDTALYYCARDGYSSSWGAYDIWGQGTMVTVSS VL: DIQMTQSPSSLSASVGDRVTITCRASQSISTYLNWYQQKPGKAPKLLIYAASSLQSGVPLRFSGSGSGTDFTLTISSLQPEDFASYFCQQSYSTPYTFGQGTKLEIK |  | 36.6% | 
4 | H4H12170P (antibody, IgG4, V domains shown) VH: QVQLVESGGGVVQPGRSLRLSCAASGFTFSGYGMHWVRQAPGKGLEWVALIWLDGSNDYYADSVKGRFTISRDNSKNTLYLQMNRLRAEDTAVYYCARDGPVAAIPDYWGQGTLVTVSS VL: DIQMTQSPSTLSASVGDRVTITCRASQSISRWLAWYQLKPGKAPKLLIYKASSLESGVPSRFSGSGSGTDFTLTISSLQPDDFATYYCQQYNTYSYTFGQGTKLEIK |  | 88.7% | 
5 | H4H12176P2 (antibody, V domains shown) VH: EVQLVESGGGLVQPGGSLRLSCAASGFHSNRYWMDWVRQAPGKGLEWVANIKQDGSEENYVDSVKGRFTISRDNAKNSLYLQMNSLRAEDTAVYYCARDRSTSWVPYWFFDLWGRGTLVTVSS VL: not shown | 27.4% | 62.8% | 
6 | H4H12176P2xH4H12177P2 bispecific antibody (bispecific antibody, V domains shown) VH 1: EVQLVESGGGLVQPGGSLRLSCAASGFHSNRYWMDWVRQAPGKGLEWVANIKQDGSEENYVDSVKGRFTISRDNAKNSLYLQMNSLRAEDTAVYYCARDRSTSWVPYWFFDLWGRGTLVTVSS VH 2: EVQLVESGGGVVQRGESLRLSCSASDFIFKDYAMYWVRQIPGKGLEWISLISGDGDTTWYGDSVKGRFTISRDNNENSLFLQMNDLRTEDTAMYYCARDMGWNFFQLQYWGQGTLVTVSS VL: not shown | 98.1% |  | ~1.29 mAb/C5 molar ratio
7 | H4H12161P (antibody, V domains shown) VH: EVQLVESGGDLVQPGGSLRLSCAASGFTFSDHYMDWVRQAPGKGLDWIGRIRNKANAYNTEYAASVRGRFTISRDDSQNLLYLQMNSLKTDDTAVYYCVRVWNYAYFAMDVWGQGTTVTVSS VL: DIQMTQSPSSLSASVGDRVTITCRSSQNIGIFLNWYQQKPGEAPNLLISAASSLHSGVPSRFSGSGSGTDFTLTIGSLQPEDFATYYCQQTYNTIFTFGPGTKVDIK |  | 59.2% | 

From patent US20240392039A1 (Regeneron, published 2024)
